In patent publication US20200157537, “Modulating RNA Interactions with Polycomb Repressive Complex 1 (PRC1)” (The General Hospital Corporation, published 2020):

Key:
GFP (control protein) = GFP (control protein) (UniProt P42212 P42212:1-238); experiment: EMSA; control protein; conditions: tags: Flag; label: radiolabelled
Experimental: (§1) RNA-EMSA assays with CBX7 protein were performed as follows. Labeled RNAs were produced with MEGAscript® T7 Transcription Kit (Life Technologies) and purified from 6% acrylamide TBE-urea gels. Labeled RNAs were prefolded in buffer TE+300 mM NaCl by incubating for 2 min at 95° C., followed by 20 min incubation on ice. Binding reactions were assembled with 20 μl of binding mix (13 mM Tris pH 8.0, 0.2 mM EDTA, 68.8 mM NaCl, 20% Glycerol, 0.2 mg/ml Yeast tRNA, 4 mM DTT, 4 μl 2500 cpm/μl RNA probe). LNA oligonucleotides were added to binding mix at final concentration of 8 μM and samples were pre-incubated on ice for 10 min. After pre-incubation, binding mix samples were combined with 60 μl of purified protein in dialysis buffer (50 mM Tris pH 7.4, 5 mM MgCl₂, 50 mM NaCl, 1 mM DTT, 10% Glycerol, 4 u/μl Protector RNAse inhibitor (Roche)). Control experiments were performed with dialysis buffer only or control proteins—Flag-GFP or GST-Flag-HA, dissolved in dialysis buffer at the highest protein concentration in the particular experiment. After 30 min on ice, the sample was loaded onto a 5% 37:1 acrylamide (Bio-Rad) gel in 0.5× TBE buffer (45 mM Tris-Borate, 1 mM disodium EDTA) and run for 90 min at 250 V at 4° C. Gels were exposed to phosphorimager screens. For validation of motif sequences, labeled RNA probes were produced with MEGAshortscript™ T7 Transcription Kit (Life Technologies) and gel purified using 15% TBE-urea gels (Life technologies) Similar RNA-EMSA conditions were applied except 8% 37:1 acrylamide (Bio-Rad) gels replaced 5% gels.

CBX7 [1] = target: T1, CBX7 (Mus musculus, UniProt Q8VDS3 Q8VDS3:1-158); experiment: EMSA; low micromolar range, value only in figure; Hill coefficient suggests cooperativity, 2-3 sites; yeast tRNA, Mg2+, on ice; competed by cold Dcaf12l1; conditions: tags: C-terminal Flag-HA; baculovirus Sf9, anti-FLAG M2 purified; label: radiolabelled
T1 sequence (Q8VDS3 whole entry, one chain of several): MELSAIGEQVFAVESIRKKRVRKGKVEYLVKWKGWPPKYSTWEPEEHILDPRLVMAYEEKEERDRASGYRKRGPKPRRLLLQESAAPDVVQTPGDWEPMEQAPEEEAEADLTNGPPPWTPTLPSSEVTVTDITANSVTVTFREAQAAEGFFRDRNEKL
Experimental: as §1, with “For validation of motif sequences, labeled RNA probes were produced with MEGAshortscript™ T7 Transcription Kit (Life Technologies) and gel purified using 15% TBE-urea gels (Life technologies) Similar RNA-EMSA conditions were applied except 8% 37:1 acrylamide (Bio-Rad) gels replaced 5% gels.” left out

CBX7 [2] = target: T1, CBX7; experiment: EMSA; low micromolar range, value only in figure; positive cooperativity; yeast tRNA, Mg2+, on ice; conditions: tags: C-terminal Flag-HA; baculovirus Sf9, anti-FLAG M2 purified; label: radiolabelled
Experimental: as §1, with “For validation of motif sequences, labeled RNA probes were produced with MEGAshortscript™ T7 Transcription Kit (Life Technologies) and gel purified using 15% TBE-urea gels (Life technologies) Similar RNA-EMSA conditions were applied except 8% 37:1 acrylamide (Bio-Rad) gels replaced 5% gels.” left out

| Binder | binding result (GFP (control protein)) | binding result (CBX7 [1]) | binding result (CBX7 [2]) |
| --- | --- | --- | --- |
| Dcaf12l1 3'UTR EMSA probe (ssRNA) RNA: UCAAAUAGAGGAGCUGGGGAUUAAAAAGAUAGGUCUGAUUAAAGGACUGUGCAGUUCAGAUAAAUAGAGAUAAUGGGAUGCCGUGCGGAUAGAUUGGUUUUCUCC | no binding | binds | – |
| Calm2 3'UTR EMSA probe (ssRNA) RNA: GUAGCUUUUAGGAACUGUCAGCAUGUUGUUGUUGAAGUGUGGAGCUGUAACUCUGCGUGGACUGUGGACAGUCAACAAUAUGUACUUAAAAGUUGCACUAUUGCAA | no binding | – | binds |
| Dusp9 3'UTR EMSA probe (ssRNA) RNA: GGCCACUUUGACUCGUGUAGACUCCUUCCUGCUUCUCUCACUAGGGCUUAGACUUCUUGGAACUGUAGGGUGUGAACCCAGAGAC | no binding | – | binds |
